Experimental data from patent US20180371086A1 (Gilead, published 2018).

Tests used:
[1] = biological target: HIV-1 Env gp120 of virus 1489, on infected cells (HIV-1); test: cell-based or functional assay
[2] = biological target: HIV-1 Env gp120 of virus 7015, on infected cells (HIV-1); test: cell-based or functional assay
[3] = biological target: HIV-1 Env gp120 of virus 7552, on infected cells (HIV-1); test: cell-based or functional assay
[4] = biological target: T1, HIV-1 Env gp120 of virus WITO, on infected cells (HIV-1); test: cell-based or functional assay
[5] = biological target: HIV-1 Env gp120 of virus CH058, on infected cells (HIV-1); test: cell-based or functional assay
[6] = biological target: HIV-1 Env gp120 of virus 92US727, on infected cells (HIV-1); test: cell-based or functional assay
[7] = biological target: T1, HIV-1 Env gp120 of virus WITO, on …; test: cell-based or functional assay; remark: listed apart in the source
[8] = biological target: HIV-1 Env of subtype B isolate 92US657 (HIV-1); test: cell-based or functional assay
[9] = biological target: HIV-1 Env of subtype B isolate 92US727 (HIV-1); test: cell-based or functional assay
[10] = biological target: HIV-1 Env of the lab adapted HIV-1 BaL strain (HIV-1); test: cell-based or functional assay
[11] = biological target: HIV-1 Env of subtype B isolate 93HT593 (HIV-1); test: cell-based or functional assay
[12] = biological target: HIV-1 Env of subtype B isolate 92US712 (HIV-1); test: cell-based or functional assay
[13] = biological target: T2, Human FcRn (human, UniProt P55899 24-297; P61769 21-119); test: ELISA, FcRn coated on plate; ratio of EC50 at pH 7.0 to pH 6.0
T2 construct: also called neonatal Fc receptor
Experimental: (§1) The binding of antibodies to FcRn of various antibody variants at different pHs was determined. A 96-well Maxisorp plate was coated with 100 ul of 5 μg/ml FcRn. The plate was incubated overnight at 4° C., and then blocked with 4% skim milk for 2 hr at room temperature after washing 3 times with 0.05% Tween 20 washing buffer. […] The plate was then washed 3 times and 100 μL of Fab-anti-human Fab-HRP or Goat anti-human IgG-HRP secondary antibody diluted in 4% skimmed milk was added. Plates were then incubated 50 min at room temperature, washed three times, and 100 μL fresh TMB substrate was added. Plates were developed for 3 minutes on bench with gentle shaking. Plate was quenched with 100 μL 1M HCl, shaken briefly, read at A450 on a spectramax m5 plate reader.

[14] = biological target: T2, Human FcRn; test: ELISA, FcRn coated on plate, pH 6.0
Experimental: as §1

[15] = biological target: T2, Human FcRn; test: ELISA, FcRn coated on plate, pH 7.0
Experimental: as §1

[16] = biological target: T2, Human FcRn; test: ELISA, FcRn coated on plate; pH 7.0/6.0 ratio against that of PGT121
Experimental: as §1

[17] = biological target: gp120 (HT593) expressed on human embryonic kidney (HEK) cells (HIV-1); test: cell-based or functional assay

T2 sequence (P55899 24-297 limits assumed, chain 1 of 2): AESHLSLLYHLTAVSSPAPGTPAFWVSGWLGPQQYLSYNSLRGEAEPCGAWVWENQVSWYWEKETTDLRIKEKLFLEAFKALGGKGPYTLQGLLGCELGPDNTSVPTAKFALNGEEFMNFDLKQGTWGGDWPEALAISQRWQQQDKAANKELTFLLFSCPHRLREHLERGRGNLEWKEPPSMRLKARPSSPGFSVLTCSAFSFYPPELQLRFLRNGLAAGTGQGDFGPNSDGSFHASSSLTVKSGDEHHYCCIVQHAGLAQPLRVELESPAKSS
T2 sequence (P61769 21-119 limits assumed, chain 2 of 2): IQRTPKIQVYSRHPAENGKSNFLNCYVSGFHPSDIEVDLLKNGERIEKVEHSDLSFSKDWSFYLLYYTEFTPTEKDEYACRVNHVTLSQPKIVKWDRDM

B1: Exemplary gp120×CD3 Duobody® (bispecific antibody, human IgG1, lambda)
heavy 1: QMQLQESGPGLVKPSETLSLTCSVSGASISDSYWSWIRRSPGKGLEWIGYVHKSGDTNYNPSLKSRVHLSLDTSKNQVSLSLTGVTAADSGKYYCARTLHGRRIYGIVAFNEWFTYFYMDVWGTGTQVTVSSASTKGPSVFPLAPSSKSTSGGTAALGCLVKDYFPEPVTVSWNSGALTSGVHTFPAVLQSSGLYSLSSVVTVPSSSLGTQTYICNVNHKPSNTKVDKRVEPKSCDKTHTCPPCPAPEFEGGPSVFLFPPKPKDTLMISRTPEVTCVVVAVSHEDPEVKFNWYVDGVEVHNAKTKPREEQYNSTYRVVSVLTVLHQDWLNGKEYKCKVSNKALPAPIEKTISKAKGQPREPQVYTLPPSREEMTKNQVSLTCLVKGFYPSDIAVEWESNGQPENNYKTTPPVLDSDGSFFLYSRLTVDKSRWQQGNVFSCSVMHEALHNHYTQKSLSLSPGK
light 1: not shown
heavy 2: not shown
light 2: not shown
killing EC50; HIV-infected CEM-NKr-CCR5-LucR CD4 T cells; PBMC donor 4176; virus 1489 [1]: 0.028 µg/mL | killing EC50; HIV-infected CEM-NKr-CCR5-LucR CD4 T cells; PBMC donor 4288; virus 1489 [1]: 0.005 µg/mL | killing EC50; HIV-infected CEM-NKr-CCR5-LucR CD4 T cells; PBMC donor 4176; virus 7015 [2]: 1.04 µg/mL | killing EC50; HIV-infected CEM-NKr-CCR5-LucR CD4 T cells; PBMC donor 4288; virus 7015 [2]: 0.446 µg/mL | killing EC50; HIV-infected CEM-NKr-CCR5-LucR CD4 T cells; PBMC donor 4176; virus 7552 [3]: 0.038 µg/mL | killing EC50; HIV-infected CEM-NKr-CCR5-LucR CD4 T cells; PBMC donor 4288; virus 7552 [3]: 0.003 µg/mL | killing EC50; HIV-infected CEM-NKr-CCR5-LucR CD4 T cells; PBMC donor 4176; virus WITO [4]: 0.248 µg/mL | killing EC50; HIV-infected CEM-NKr-CCR5-LucR CD4 T cells; PBMC donor 4288; virus WITO [4]: 0.046 µg/mL | Potency (IC50) of killing HIV-infected cells; PBMC-derived effector cells; donor 1003277; virus CHO58 [5]: 0.002 µg/mL | Potency (IC50) of killing HIV-infected cells; PBMC-derived effector cells; donor 1004344; virus CHO58 [5]: 0.001 µg/mL | Potency (IC50) of killing HIV-infected cells; tonsil-derived effector cells; donor 1003277; virus CHO58 [5]: 0.024 µg/mL | Potency (IC50) of killing HIV-infected cells; tonsil-derived effector cells; donor 1004344; virus CHO58 [5]: 0.031 µg/mL | Potency (IC50) of killing HIV-infected cells; PBMC-derived effector cells; donor 1004344; virus 92US727 [6]: 0.012 µg/mL | Potency (IC50) of killing HIV-infected cells; tonsil-derived effector cells; donor 1004344; virus 92US727 [6]: 0.051 µg/mL | killing EC50; HIV-infected CD4 T cells (WITO); effector cells Eff Memory CD4 [7]: 0.02 µg/mL | killing EC50; HIV-infected CD4 T cells (WITO); effector cells Memory CD4 [7]: 0.02 µg/mL | killing EC50; HIV-infected CD4 T cells (WITO); effector cells Memory CD8 [7]: 0.02 µg/mL | killing EC50; HIV-infected CD4 T cells (WITO); effector cells Naïve CD4 [7]: 0.03 µg/mL | killing EC50; HIV-infected CD4 T cells (WITO); effector cells γ Δ CD4 [7]: 0.09 µg/mL

B2: PGT121.56 (antibody, human IgG1, lambda)
heavy: QMQLQESGPGLVKPSETLSLTCSVSGASISDSYWSWIRRSPGKGLEWIGYVHKSGDTNYSPSLKSRVNLSLDTSKNQVSLSLVAATAADSGKYYCARTLHGRRIYGIVAFNEWFTYFYMDVWGNGTQVTVSSASTKGPSVFPLAPSSKSTSGGTAALGCLVKDYFPEPVTVSWNSGALTSGVHTFPAVLQSSGLYSLSSVVTVPSSSLGTQTYICNVNHKPSNTKVDKKVEPKSCDKTHTCPPCPAPELLAGPDVFLFPPKPKDTLMISRTPEVTCVVVDVSHEDPEVKFNWYVDGVEVHNAKTKPREEQYNSTYRVVSVLTVLHQDWLNGKEYKCKVSNKALPLPEEKTISKAKGQPREPQVYTLPPSREEMTKNQVSLTCLVKGFYPSDIAVEWESNGQPENNYKTTPPVLDSDGSFFLYSKLTVDKSRWQQGNVFSCSVLHEALHSHYTQKSLSLSPGK
light: not shown
Neutralization potency, IC50 [8]: 0.142 µg/mL | Neutralization potency, IC50 [9]: 0.011 µg/mL | Neutralization potency, IC50 [10]: 0.02 µg/mL | Neutralization potency, IC50 [11]: 0.164 µg/mL | Neutralization potency, IC50 [12]: 0.019 µg/mL

B3: PGT121.56 (antibody, human IgG1, lambda)
heavy: QMQLQESGPGLVKPSETLSLTCSVSGASISDSYWSWIRRSPGKGLEWIGYVHKSGDTNYSPSLKSRVNLSLDTSKNQVSLSLVAATAADSGKYYCARTLHGRRIYGIVAFNEWFTYFYMDVWGNGTQVTVSSASTKGPSVFPLAPSSKSTSGGTAALGCLVKDYFPEPVTVSWNSGALTSGVHTFPAVLQSSGLYSLSSVVTVPSSSLGTQTYICNVNHKPSNTKVDKKVEPKSCDKTHTCPPCPAPELLAGPDVFLFPPKPKDTLMISRTPEVTCVVVDVSHEDPEVKFNWYVDGVEVHNAKTKPREEQYNSTYRVVSVLTVLHQDWLNGKEYKCKVSNKALPLPEEKTISKAKGQPREPQVYTLPPSREEMTKNQVSLTCLVKGFYPSDIAVEWESNGQPENNYKTTPPVLDSDGSFFLYSKLTVDKSRWQQGNVFSCSVLHEALHSHYTQKSLSLSPGK
light: not shown
Ratio pH 7.0/6.0 [13]: 217 | EC50 [14]: 0.47 nM | EC50 [15]: 102 nM | Fold vs PGT121 [16]: 7 fold

B4: Variant 2 (DS -> DF) (antibody, human IgG1, lambda, V domains shown)
VH: QMQLQESGPGLVKPSETLSLTCSVSGASISDSYWSWIRRSPGKGLEWIGYVHKSGDTNYNPSLKSRVHLSLDTSKNQVSLSLTGVTAADSGKYYCARTLHGRRIYGIVAFNEWFTYFYMDVWGTGTQVTVSS
VL: SDISVAPGETARISCGEKSLGSRAVQWYQHRAGQAPSLIIYNNQDRPSGIPERFSGSPDFRPGTTATLTITSVEAGDEADYYCHIWDSRVPTKWVFGGGTTLTVLG
% ADCC Activity (ADCC reporter cell based assay; sample stressed at 25° C. for 4 weeks, relative to its untreated control) [17]: 96%

B5: Variant 4 (DS->GS) (antibody, human IgG1, lambda, V domains shown)
VH: QMQLQESGPGLVKPSETLSLTCSVSGASISDSYWSWIRRSPGKGLEWIGYVHKSGDTNYNPSLKSRVHLSLDTSKNQVSLSLTGVTAADSGKYYCARTLHGRRIYGIVAFNEWFTYFYMDVWGTGTQVTVSS
VL: SDISVAPGETARISCGEKSLGSRAVQWYQHRAGQAPSLIIYNNQDRPSGIPERFSGSPGSRPGTTATLTITSVEAGDEADYYCHIWDSRVPTKWVFGGGTTLTVLG
% ADCC Activity (ADCC reporter cell based assay; sample stressed at 25° C. for 4 weeks, relative to its untreated control) [17]: 95%

B6: Variant 3 (DS->DT) (antibody, human IgG1, lambda, V domains shown)
VH: QMQLQESGPGLVKPSETLSLTCSVSGASISDSYWSWIRRSPGKGLEWIGYVHKSGDTNYNPSLKSRVHLSLDTSKNQVSLSLTGVTAADSGKYYCARTLHGRRIYGIVAFNEWFTYFYMDVWGTGTQVTVSS
VL: SDISVAPGETARISCGEKSLGSRAVQWYQHRAGQAPSLIIYNNQDRPSGIPERFSGSPDTRPGTTATLTITSVEAGDEADYYCHIWDSRVPTKWVFGGGTTLTVLG
% ADCC Activity (ADCC reporter cell based assay; sample stressed at 25° C. for 4 weeks, relative to its untreated control) [17]: 104%

B7: Variant 1 (DS -> DY) (antibody, human IgG1, lambda, V domains shown)
VH: QMQLQESGPGLVKPSETLSLTCSVSGASISDSYWSWIRRSPGKGLEWIGYVHKSGDTNYNPSLKSRVHLSLDTSKNQVSLSLTGVTAADSGKYYCARTLHGRRIYGIVAFNEWFTYFYMDVWGTGTQVTVSS
VL: SDISVAPGETARISCGEKSLGSRAVQWYQHRAGQAPSLIIYNNQDRPSGIPERFSGSPDYRPGTTATLTITSVEAGDEADYYCHIWDSRVPTKWVFGGGTTLTVLG
% ADCC Activity (ADCC reporter cell based assay; sample stressed at 25° C. for 4 weeks, relative to its untreated control) [17]: 100%
